Molecular target: Cy5-labelled 46w60 mononucleosome (histone octamer on DNA)
Assay: MST

Kd: 41 nM
fold change of Kd with 2 uM (CA)20 RNA against no RNA: < 2 fold
fold reduction of affinity with 2 uM (GA)20 RNA against no RNA: 20 fold
Substance: human CHD4 (from UniProt Q14839 1-1912) (enzyme)
